Data taken from patent publication US20150073033.

Experiments:
[1] = target: purified GST-β-catenin (unphosphorylated) (UniProt P35222)
[2] = target: purified recombinant GST-Bub3 (wild type) (UniProt O43684)
[3] = system: purified recombinant His-tagged WT histone H3

Sequence of purified GST-β-catenin (unphosphorylated) (P35222 whole entry): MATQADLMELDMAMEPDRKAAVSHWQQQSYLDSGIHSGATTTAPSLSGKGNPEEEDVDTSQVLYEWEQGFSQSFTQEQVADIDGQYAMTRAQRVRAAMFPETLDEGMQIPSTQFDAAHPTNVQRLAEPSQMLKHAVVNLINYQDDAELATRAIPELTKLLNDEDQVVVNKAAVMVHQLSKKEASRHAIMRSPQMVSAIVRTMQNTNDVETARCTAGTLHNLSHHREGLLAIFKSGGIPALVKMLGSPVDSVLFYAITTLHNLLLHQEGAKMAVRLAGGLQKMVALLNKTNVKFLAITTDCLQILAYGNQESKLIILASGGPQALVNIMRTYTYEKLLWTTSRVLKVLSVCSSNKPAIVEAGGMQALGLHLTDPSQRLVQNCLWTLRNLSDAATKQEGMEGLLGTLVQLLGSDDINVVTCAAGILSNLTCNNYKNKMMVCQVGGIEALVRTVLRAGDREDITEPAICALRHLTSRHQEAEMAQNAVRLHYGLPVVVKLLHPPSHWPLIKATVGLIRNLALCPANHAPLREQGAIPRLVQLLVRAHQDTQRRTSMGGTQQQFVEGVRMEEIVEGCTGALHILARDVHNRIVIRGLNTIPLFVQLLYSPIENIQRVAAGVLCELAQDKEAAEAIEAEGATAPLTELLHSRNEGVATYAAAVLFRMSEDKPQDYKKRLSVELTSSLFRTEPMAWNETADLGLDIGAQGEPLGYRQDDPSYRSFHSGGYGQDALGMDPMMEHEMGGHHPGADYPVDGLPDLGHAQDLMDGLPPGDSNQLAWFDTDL
Sequence of purified recombinant GST-Bub3 (wild type) (O43684 whole entry): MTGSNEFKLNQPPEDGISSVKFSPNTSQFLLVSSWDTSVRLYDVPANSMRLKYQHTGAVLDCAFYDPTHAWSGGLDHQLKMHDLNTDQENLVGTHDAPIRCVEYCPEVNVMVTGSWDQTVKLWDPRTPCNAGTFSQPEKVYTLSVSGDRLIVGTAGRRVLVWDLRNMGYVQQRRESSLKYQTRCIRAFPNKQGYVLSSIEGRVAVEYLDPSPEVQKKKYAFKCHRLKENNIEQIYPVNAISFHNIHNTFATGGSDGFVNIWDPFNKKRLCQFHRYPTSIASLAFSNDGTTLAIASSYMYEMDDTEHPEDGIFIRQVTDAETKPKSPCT

Substance	in vitro protein kinase assay (Tyr and Y333 phosphorylation by immunoblot) [1]	in vitro protein kinase assay with PEP (anti-phospho-Tyr immunoblot) [2]	in vitro phosphorylation with PEP (anti-phospho-Thr and phospho-H3-T11 immunoblot) [3]
purified active c-Src	active c-Src was able to phosphorylate WT β-catenin		
purified recombinant His-PKM2 (wild type)		PKM2, but not PKM2 K367M or PKM1, phosphorylated Bub3	WT PKM2, but not PKM2 K367M kinase-dead mutant (Yang et al., 2011) or PKM1, phosphorylated WT histone H3 but not H3-T11A
